Our source for the Kd values is PMC6476560 (PLoS ONE, 2019).

What all share (assay): MST
Assay [1] addresses fluorescein-labelled wild-type MtbMpa (Mycobacterium tuberculosis) (UniProt P9WQN5).
Assay [2] addresses fluorescently labelled Dop (deamidase of Pup; depupylase) (UniProt P9WNU9).
The target of assay [3] is T1, fluorescein-labelled wild-type MtbMpa (Mycobacterium tuberculosis, UniProt P9WQN5 1-609).
T1 sequence: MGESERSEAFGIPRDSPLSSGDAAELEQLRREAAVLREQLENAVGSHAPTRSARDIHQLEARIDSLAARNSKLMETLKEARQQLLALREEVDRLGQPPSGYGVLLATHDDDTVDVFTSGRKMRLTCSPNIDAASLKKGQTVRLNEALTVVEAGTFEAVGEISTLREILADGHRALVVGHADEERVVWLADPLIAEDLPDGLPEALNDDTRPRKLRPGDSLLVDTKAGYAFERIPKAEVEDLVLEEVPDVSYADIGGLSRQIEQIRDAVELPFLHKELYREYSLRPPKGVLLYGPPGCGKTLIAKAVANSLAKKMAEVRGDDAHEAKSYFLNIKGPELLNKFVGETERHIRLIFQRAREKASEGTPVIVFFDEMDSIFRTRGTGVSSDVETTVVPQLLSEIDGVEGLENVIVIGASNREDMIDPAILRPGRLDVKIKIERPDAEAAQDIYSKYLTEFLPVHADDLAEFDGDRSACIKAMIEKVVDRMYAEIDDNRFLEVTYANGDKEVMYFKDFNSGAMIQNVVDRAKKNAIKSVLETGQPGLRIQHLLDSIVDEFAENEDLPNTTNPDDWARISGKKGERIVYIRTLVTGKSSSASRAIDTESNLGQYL
Particulars: both partners purified.

Assay [4] addresses T2, Pup-MSMEG_1807 (pupylated alpha-chain of propionyl-CoA carboxylase of M. smegmatis) (Mycobacterium smegmatis | Mycobacterium …, UniProt A0QTE1 1-598; P9WHN5 1-64, PupE (C-terminal glutamine as glutamate)).
T2 construct: copies: 2 + 1
The settings on record: both partners purified.

For assay [5], the target named is T3, Pup-MSMEG_5049 (pupylated 2-oxoglutarate dehydrogenase E1 of M. smegmatis) (Mycobacterium smegmatis | Mycobacterium …, UniProt A0R2B1;P9WHN5, PupE (C-terminal glutamine as glutamate)).
T3 construct: copies: 2 + 1
T3 sequence 1: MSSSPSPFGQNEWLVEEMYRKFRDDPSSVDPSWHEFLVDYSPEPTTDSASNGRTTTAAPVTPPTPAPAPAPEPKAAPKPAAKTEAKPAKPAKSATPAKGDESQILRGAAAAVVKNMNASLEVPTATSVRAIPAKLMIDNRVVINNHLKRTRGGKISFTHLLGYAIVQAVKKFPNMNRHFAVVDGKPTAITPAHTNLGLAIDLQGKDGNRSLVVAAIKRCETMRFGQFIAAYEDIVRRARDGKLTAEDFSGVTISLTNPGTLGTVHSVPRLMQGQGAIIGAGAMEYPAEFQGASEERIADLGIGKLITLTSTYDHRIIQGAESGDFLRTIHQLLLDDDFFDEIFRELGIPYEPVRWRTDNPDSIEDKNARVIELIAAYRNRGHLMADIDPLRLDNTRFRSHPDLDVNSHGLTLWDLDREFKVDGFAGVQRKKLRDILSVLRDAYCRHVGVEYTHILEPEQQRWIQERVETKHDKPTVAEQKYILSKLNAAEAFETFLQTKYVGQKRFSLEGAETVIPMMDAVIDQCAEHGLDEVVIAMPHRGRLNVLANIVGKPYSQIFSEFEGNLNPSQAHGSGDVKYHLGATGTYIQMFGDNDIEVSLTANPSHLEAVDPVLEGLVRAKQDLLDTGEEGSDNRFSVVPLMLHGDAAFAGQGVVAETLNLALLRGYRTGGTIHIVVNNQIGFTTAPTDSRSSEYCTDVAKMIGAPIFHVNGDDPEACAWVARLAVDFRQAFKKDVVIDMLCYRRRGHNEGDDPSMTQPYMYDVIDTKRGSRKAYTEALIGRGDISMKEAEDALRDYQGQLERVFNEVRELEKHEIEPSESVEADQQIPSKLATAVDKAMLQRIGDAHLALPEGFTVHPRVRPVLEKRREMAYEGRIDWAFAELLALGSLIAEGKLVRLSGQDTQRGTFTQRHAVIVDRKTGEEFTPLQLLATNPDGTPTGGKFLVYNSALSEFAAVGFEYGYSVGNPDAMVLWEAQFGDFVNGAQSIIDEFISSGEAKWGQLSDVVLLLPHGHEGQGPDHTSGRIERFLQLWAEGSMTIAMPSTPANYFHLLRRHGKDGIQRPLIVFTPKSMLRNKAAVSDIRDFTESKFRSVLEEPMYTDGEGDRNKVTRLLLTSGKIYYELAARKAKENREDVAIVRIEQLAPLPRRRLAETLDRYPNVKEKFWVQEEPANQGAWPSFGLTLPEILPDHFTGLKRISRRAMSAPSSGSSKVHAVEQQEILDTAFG
T3 sequence 2: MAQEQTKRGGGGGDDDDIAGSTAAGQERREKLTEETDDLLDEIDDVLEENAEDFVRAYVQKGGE
Particulars: both partners purified.

With “Pup-FabD3KR (pupylated malonyl transacylase FabD, triple lysine-to-arginine variant) (from UniProt P9WNG5;P9WHN5) (complex)”, the Kd in assay [1] came out at 240 nM. Regarding “Pup-MSMEG_2412 (pupylated pyruvate carboxylase of M. smegmatis) (from UniProt P9WHN5 1-64) (complex)”, the Kd in assay [2] came to 114 nM.

B1: MtbPupE (prokaryotic ubiquitin-like protein Pup with C-terminal glutamate), free (natural protein)
chain: MAQEQTKRGGGGGDDDDIAGSTAAGQERREKLTEETDDLLDEIDDVLEENAEDFVRAYVQKGGE
In the case of B1, in assay [3], binding was characterised by a dissociation constant (Kd) of 3310 ± 650 nM.

B2: fluorescently labelled Dop (deamidase of Pup; depupylase) (enzyme)
chain: MQRIIGTEVEYGISSPSDPTANPILTSTQAVLAYAAAAGIQRAKRTRWDYEVESPLRDARGFDLSRSAGPPPVVDADEVGAANMILTNGARLYVDHAHPEYSAPECTDPLDAVIWDKAGERVMEAAARHVASVPGAAKLQLYKNNVDGKGASYGSHENYLMSRQTPFSAIITGLTPFLVSRQVVTGSGRVGIGPSGDEPGFQLSQRSDYIEVEVGLETTLKRGIINTRDEPHADADRYRRLHVIIGDANLAETSTYLKLGTTALVLDLIEEGPAHAIDLTDLALARPVHAVHAISRDPSLRATVALADGRELTGLALQRIYLDRVAKLVDSRDPDPRAADIVETWAHVLDQLERDPMDCAELLDWPAKLRLLDGFRQRENLSWSAPRLHLVDLQYSDVRLDKGLYNRLVARGSMKRLVTEHQVLSAVENPPTDTRAYFRGECLRRFGADIAAASWDSVIFDLGGDSLVRIPTLEPLRGSKAHVGALLDSVDSAVELVEQLTAEPR
In the case of B2, the figures for the Kd in assay [4] and in assay [5] were 339 ± 55 nM and 121 ± 28 nM, respectively.
